Experimental findings from patent US20200223888A1 (ARCH BIOPARTNERS, published 2020) are described below.

First the molecules themselves.
T1: human membrane dipeptidase (DPEP-1), wild type, expressed on transfected cells (human, UniProt P16444 17-385)
T1 construct: whole, on cells; also called human DPEP1; hDPEP1
T1 sequence (looked up): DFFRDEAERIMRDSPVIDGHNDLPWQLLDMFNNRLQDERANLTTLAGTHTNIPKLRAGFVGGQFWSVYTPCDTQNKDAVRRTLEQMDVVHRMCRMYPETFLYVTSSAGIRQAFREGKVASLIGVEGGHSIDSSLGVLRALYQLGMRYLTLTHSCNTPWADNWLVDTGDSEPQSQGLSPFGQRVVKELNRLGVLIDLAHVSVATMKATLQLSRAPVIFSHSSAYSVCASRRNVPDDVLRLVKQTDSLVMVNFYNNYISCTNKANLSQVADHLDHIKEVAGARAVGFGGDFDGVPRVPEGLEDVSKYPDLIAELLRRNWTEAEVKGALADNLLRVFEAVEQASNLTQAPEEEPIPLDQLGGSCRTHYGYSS

T2: LSALT peptide (LSALTPSPSWLKYKAL)
T2 chain: LSALTPSPSWLKYKAL

B1: phage hit displaying KHMHWHPPALNT (Ph.D.-12 library) (peptide)
peptide: KHMHWHPPALNT
notes: The phage coat protein part is not described; also called neogenin-mimetic peptide phage hit; phage peptide tentatively identified as corresponding to Neogenin
B2: human membrane dipeptidase (DPEP-1), wild type, expressed on transfected cells (protein)
chain: T1 sequence (looked up)
B3: LSALT peptide (LSALTPSPSWLKYKAL) (peptide)
peptide: LSALTPSPSWLKYKAL
modifications: also: Alexa-488 or biotin label or agarose support in some assays, site not given here
notes: Synthetic peptide from a phage display hit; The label or support differs between assays; also called Metablok; Native
B4: LSALT alanine walk peptide Pos 5 (LSALAPSPSWLKYKAL) (peptide)
peptide: Biotin-LSALAPSPSWLKYKAL
notes: also called #A5; A5
B5: LSALT alanine walk peptide Pos 10 (LSALTPSPSALKYKAL) (peptide)
peptide: Biotin-LSALTPSPSALKYKAL
notes: also called #A10; A10
B6: LSALT alanine walk peptide Pos 12 (LSALTPSPSWLAYKAL) (peptide)
peptide: Biotin-LSALTPSPSWLAYKAL
notes: also called #A12; #Al2
B7: LSALT alanine walk peptide Pos 1 (ASALTPSPSWLKYKAL) (peptide)
peptide: Biotin-ASALTPSPSWLKYKAL
notes: also called #A1; A1
B8: IPK phage hit HIPKSPIQIPII (Ph.D.-12 library) (peptide)
peptide: HIPKSPIQIPII
notes: also called IPK peptide

The target in data set [1] is T1, human membrane dipeptidase (DPEP-1), …. In words: phage (10^8 pfu) on DPEP1 transfected Cos 1 cells, anti-M13 serum, fluorescence imaging (FIG. 19B). On the procedure:
In FIG. 19B, Cosl cells were transiently transfected with plasmids corresponding to human DPEP1 or DPEP2 (Lipofectamine 2000) 24 hrs prior to plating on collagen-coated (PureCol; Type I collagen from bovine tendon) coverslips. One day later cells were incubated with 10⁸ pfu test phage, which were then detected by anti-M13 rabbit serum (in house) with anti-rabbit Alexa 568 secondary. After fixing and counterstaining with DAPI, coverslips were fluorescently imaged.

Data set [2] addresses T2, LSALT peptide (LSALTPSPSWLKYKAL).
The target of data set [3] is T3, rat membrane dipeptidase (DPEP-1), expressed on transfected Cos cells (rat, UniProt P31430 17-384).
T3 construct: whole, on cells; also called renal rat membrane dipeptidase (DPEP-1); rat DPEP-1
T3 sequence (P31430 17-384): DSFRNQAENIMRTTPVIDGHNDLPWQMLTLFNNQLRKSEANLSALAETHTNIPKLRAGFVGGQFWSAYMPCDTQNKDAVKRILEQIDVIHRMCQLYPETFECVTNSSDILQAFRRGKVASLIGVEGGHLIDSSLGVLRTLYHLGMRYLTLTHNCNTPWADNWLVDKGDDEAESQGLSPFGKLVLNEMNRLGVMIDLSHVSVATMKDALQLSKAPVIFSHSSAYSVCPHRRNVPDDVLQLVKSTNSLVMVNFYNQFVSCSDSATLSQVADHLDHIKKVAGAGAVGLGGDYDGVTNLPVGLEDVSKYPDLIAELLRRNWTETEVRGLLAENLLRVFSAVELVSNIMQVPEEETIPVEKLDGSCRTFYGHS
In words: Alexa-488 peptide on transfected Cos-7 cells, flow cytometry (FIG. 9). How it is done:
Cells were washed and flow cytometry was performed to assess binding. Shown are single parameter histographs for each experimental condition (n=2).
On the technique in general: In flow cytometry, cells or beads pass a laser one at a time.

Data set [4] has as its target T1, human membrane dipeptidase (DPEP-1), …. Briefly: Alexa-488 peptide on transfected Cos-1 cells, immunofluorescence microscopy (FIG. 5B). On the procedure:
Cells were blocked with FBS/NBSA/Tween in PBS for 30 minutes on ice.

For data set [5] the target is unchanged. Briefly: biotinylated peptide at 5 uM on fixed DPEP1-transfected HEK cells, Alexa 568-streptavidin, fluorescence microscopy.
The target in data set [6] is B3. Briefly: phage display biopanning against LSALT-agarose, three rounds, plaque sequencing (FIG. 20A). From the text: Each plaque was amplified separately in liquid bacterial host culture. […] DNA inserts were translated to the expected protein and sorted to assess the number of repeating sequences.

Ends that are not written are not given here. * marks the point of attachment. Biotin = O=C1N[C@H]2[C@H](CS[C@H]2CCCCC(=O)*)N1

Consider B1, for which, in data set [1], the binding result is “binds”.

Take B2: the “membrane dipeptidase enzyme activity (Gly-D-Phe substrate, fluorimetric detection of D-Phe)” value in data set [2] is “LSALT and GFE-1 do not inhibit membrane dipeptidase enzyme activity”; in the data set with GFE-1 peptide, “LSALT and GFE-1 do not inhibit membrane dipeptidase enzyme activity”.

For B3, the binding result in data set [3] and in data set [4] was “binds” in each case. As for B4, in data set [5], the binding result is “binds”.

For B5, the binding result in data set [5] is “binds”. Still for that read-out and setting: then B6, with “binds”; and B7, with “binds”.

For B8, in data set [6], the binding result is on record as “binds”.
